Source: patent US20250019451A1 (HIFIBIO, published 2025)

T1: human CCR4 (human, UniProt P51679 1-360)
T1 construct: Expressed on cells for flow cytometry; also called hCCR4
T1 sequence: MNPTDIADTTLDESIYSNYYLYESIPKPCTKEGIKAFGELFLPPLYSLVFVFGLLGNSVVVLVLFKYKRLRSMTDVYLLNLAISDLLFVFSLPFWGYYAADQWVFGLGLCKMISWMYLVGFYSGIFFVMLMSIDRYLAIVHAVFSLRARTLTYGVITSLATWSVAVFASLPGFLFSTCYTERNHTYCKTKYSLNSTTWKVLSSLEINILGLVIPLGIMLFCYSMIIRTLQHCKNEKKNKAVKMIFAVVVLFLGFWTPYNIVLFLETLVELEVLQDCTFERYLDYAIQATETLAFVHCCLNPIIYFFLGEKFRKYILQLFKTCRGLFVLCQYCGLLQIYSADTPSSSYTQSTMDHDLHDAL

T2: mouse CCR8 (mouse, UniProt P56484 1-353)
T2 construct: Transiently expressed on ExpiHEK293 cells, fused to GFP via cleavable linker
T2 sequence: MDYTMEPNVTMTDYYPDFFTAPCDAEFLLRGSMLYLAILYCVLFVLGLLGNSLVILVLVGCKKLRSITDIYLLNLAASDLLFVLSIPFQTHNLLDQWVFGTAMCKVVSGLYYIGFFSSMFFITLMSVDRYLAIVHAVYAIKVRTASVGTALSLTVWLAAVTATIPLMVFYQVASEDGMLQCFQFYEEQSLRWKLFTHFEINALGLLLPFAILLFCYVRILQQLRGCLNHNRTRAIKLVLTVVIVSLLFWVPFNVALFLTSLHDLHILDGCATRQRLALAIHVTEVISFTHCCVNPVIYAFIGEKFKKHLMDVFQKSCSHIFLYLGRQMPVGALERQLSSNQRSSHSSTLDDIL


Assays:
human CCR8 [1] = target: T3, human CCR8 (human, UniProt P51685 1-355); test: cell-based or functional assay
cynoCCR8 [2] = target: T4, cynoCCR8 (cynomolgus, UniProt O97665 1-356 (rhesus entry)); test: flow cytometry on ExpiHEK293 cells transiently expressing cynoCCR8
T4 construct: Transiently expressed on ExpiHEK293 cells, fused to GFP via cleavable linker; also called cynomolgus CCR8
Protocol: (§1) Briefly, purified antibodies (saturating concentration of 50 nM, FIG. 3A or concentration range from 100 nM, 3-fold dilution, FIGS. 3B-3C) were incubated with 1×10⁵ ExpiHEK293 cells transiently transfected with either human (SEQ ID NO:11; Uniprot/Swiss-Prot: P51685), mouse CCR8 (SEQ ID NO: 64; Uniprot/Swiss-Prot: P56484), or cynoCCR8 (SEQ ID NO: 65; Uniprot/Swiss-Prot: G7NYJ2) fused to GFP protein via cleavable linker, for 30 minutes at 4° C. After washing, secondary anti-human-AF647 antibody (Jackson ImmunoResearch; West Grove, PA) was incubated at 12 nM for 30 minutes in PBS. After washing, cell pellets were resuspended in 50 μL PBS and samples were analyzed by flow cytometry on iQue cytometer (Sartorious, Goettingen, Germany) using Forecyt software (Intellicyt, Ann Arbor, MI). Mean of fluorescence intensity for the specific signal among GFP+ cells are represented in FIGS. 3A-3C. Titration curve of cross-reactive antibodies against mouse CCR8 and cyno CCR8 are presented in FIGS. 3B and 3C, respectively.

human CCR4 = target: T1, human CCR4; test: flow cytometry on transiently transfected ExpiHEK293 cells
mouse CCR8 [3] = target: T2, mouse CCR8; test: flow cytometry on ExpiHEK293 cells transiently expressing mouse CCR8
Protocol: as §1

human CCR8 [4] = target: T3, human CCR8; test: flow cytometry on ExpiHEK293 cells transiently expressing human CCR8, 50 nM antibody
Protocol: as §1

cynoCCR8 [5] = target: T4, cynoCCR8; test: flow cytometry titration on ExpiHEK293 cells transiently expressing cynoCCR8
Protocol: as §1

human CCR8 [6] = target: T3, human CCR8; test: flow cytometry on transiently transfected ExpiHEK293 cells, 50 nM antibody
Protocol: as §1

mouse CCR8 [7] = target: T2, mouse CCR8; test: flow cytometry titration on ExpiHEK293 cells transiently expressing mouse CCR8
Protocol: as §1

T4 sequence (O97665 other isoform, or with tags, fused parts or gaps): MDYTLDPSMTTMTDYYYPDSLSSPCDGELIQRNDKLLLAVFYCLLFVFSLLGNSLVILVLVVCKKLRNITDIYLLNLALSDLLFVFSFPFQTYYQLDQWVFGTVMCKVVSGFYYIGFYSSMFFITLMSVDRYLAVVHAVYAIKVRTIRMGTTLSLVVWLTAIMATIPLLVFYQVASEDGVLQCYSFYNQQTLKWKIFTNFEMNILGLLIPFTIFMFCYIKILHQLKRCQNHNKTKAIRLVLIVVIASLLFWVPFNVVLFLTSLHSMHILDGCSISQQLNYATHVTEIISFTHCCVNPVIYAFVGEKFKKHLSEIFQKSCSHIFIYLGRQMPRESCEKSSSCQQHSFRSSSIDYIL

Binder | ADCC NK killing of M300.19 cells expressing low copies of CCR8, EC50 (human CCR8 [1]) | binding result (cynoCCR8 [2]) | binding result (human CCR4) | binding result (mouse CCR8 [3]) | binding result (human CCR8 [4]) | EC50 (cynoCCR8 [5]) | binding result (human CCR8 [6]) | EC50 (mouse CCR8 [7])
HFB11-10 parental antibody (non-humanized) in ADCC enhanced format (antibody, V domains shown) VH: EVQLVETGGGLVQPKGSLKLSCAASGFRFNTNAMNWVRQAPGKDLEWVARIRSKSNNYATYYADSVKDRFTISRDDSQSMLYLQMNNVKTEDTAMYYCVRGSDNNYYYAMDYWGQGTSVTVSS VL: DIVMTQAAPSVPVTPGESVSISCRSSKSLLHSNGNTYLYWFLQRPGQSPQLLIYRMSNLASGVPDRFSGSGSGTAFTLRISRVEAEDVGVYYCMQHLEYPFTFGSGTKLEIK | 0.003 nM | – | – | – | – | – | – | –
HFB11-10 (antibody, V domains shown, Mouse variable domains; also called H11-10) VH: EVQLVETGGGLVQPKGSLKLSCAASGFRFNTNAMNWVRQAPGKDLEWVARIRSKSNNYATYYADSVKDRFTISRDDSQSMLYLQMNNVKTEDTAMYYCVRGSDNNYYYAMDYWGQGTSVTVSS VL: DIVMTQAAPSVPVTPGESVSISCRSSKSLLHSNGNTYLYWFLQRPGQSPQLLIYRMSNLASGVPDRFSGSGSGTAFTLRISRVEAEDVGVYYCMQHLEYPFTFGSGTKLEIK | – | no binding (tested: 50 nM) | no binding (tested: 50 nM) | no binding (tested: 50 nM) | – | – | – | –
HFB11-5 (antibody, human IgG1, V domains shown) VH: EVQLVESGGGLVQPRGSLKLSCTASGFSFNAYAMNWVRQAPGKGLEWVARIRTKSNNYATYYADSVKDRFTISRDDSESMLYLQMKNLKTEDTAMYYCVRGGYGNGGYYFDYWGQGTTLTVSS VL: DIVMTQAAPSVTVTPGESASISCRSSKSLLHRNGNSYLYWFLQRPGQSPQLLIYRISNLASGVPDRFSGSGSGTAFTLRISRVEAEDVGVYYCMQHLEYPFTFGSGTKLEIK | – | no binding (tested: 50 nM) | no binding (tested: 50 nM) | no binding (tested: 50 nM) | binds | – | – | –
HFB11-19 (antibody, human IgG1, V domains shown) VH: QVQLQQSGAELVKPGASVKLSCKASGYTFTDYIIHWVKQRSGQGLEWIGWFSPRNNYVKYNERFTDKATLTADKSSNTVYMELSSLTSEDSAVYFCSRHGRNSIGFAYWGQGTLVTVSA VL: DIVMTQAAPSVPVTPGESVSISCRSSKSLLNSNGNTYLYWFLQRPGQSPQLLIYRMSNLASGVPDRFSGSGSGTAFTLRISRVEAEDVGVYYCMQHLEYPYTFGGGTKLEIK | – | – | no binding (tested: 50 nM) | – | – | 1.8 nM | binds | –
HFB11-2 (antibody, human IgG1, V domains shown) VH: EVQLVESGGGLVQPKGSLKLSCAASGFSFNTYAMNWVRQAPGKGLEWVARIRSKSNNYATYYADSVKDRFTISRDDSERMLYLQMNNLKTEDTAMYYCVRGGSYYSNHYFDYWGQGTTLTVSS VL: DIVMTQAAPSVPVTPGESVSISCRSSKSLLHSNGNTYLYWFLQRPGQSPQLLIYQMSNLASGVPDRFSGSGSGTAFTLRISRVEAEDVGVYYCMQHLEYPFTFGAGTKLELK | – | – | no binding (tested: 50 nM) | – | – | – | binds | < 1 nM
HFB11-3 (antibody, human IgG1, V domains shown) VH: EVQLVESGGGLVQPQGSLKLSCAASGFSFNTYAMNWVRQAPGKGLQWVARIRSKSNNYATYYADSVKDRFTISRDDSESMLYLQMNNLKTEDAAMYYCVRGKDANYFYAMDYWGQGTSVTVSS VL: DIVMTQAAPSVPVTPGESVSISCRSSKSLLHSNGNTYLYWFLQRPGQSPQLLIYRMSNLASGVPDRFSGSGSGTAFTLRISRVEAEDVGVYYCMQHLEYPFTFGAGTKLELK | – | no binding (tested: 50 nM) | no binding (tested: 50 nM) | no binding (tested: 50 nM) | – | – | – | –
HFB11-8 (antibody, human IgG1, V domains shown) VH: EVQLVETGGGLVQPKGSLKLSCAASGFRFNTNAMNWVRQAPGKGLEWVARIRSKSNNYATHYVDSVKDRFTVSRDDSQSMLYLQMNNLKAEDTAMYYCVRGSDNNYYYAMDYWGQGTSVTVSS VL: DIVMTQAAPSVPVTPGESVSISCRSSKSLLHSNGNTYLYWFLQRPGQSPQLLIYRMSNLASGVPDRFSGSGSGTSFTLRISRVEVEDVGVYYCMQHLEYPFTFGSGTKLEIK | – | no binding (tested: 50 nM) | no binding (tested: 50 nM) | no binding (tested: 50 nM) | binds | – | – | –
HFB11-21 (antibody, human IgG1, V domains shown, also called HFB-21) VH: QVQLQQPGAELVKPGASVKLSCKASGYTFISYWMHWVKQRPGRGLEWIGRIDPNSGKTKYNEKFKTKATLTVDKSSSTAYMHLNSLTSDDSAVYYCAREGWGDYWGQGTTLTVSS VL: DIVLTQSPASLAVSLGQRATISCRASESVDNYGISFMHWYQQKPGQPPRLLIYRASNLASGIPARFSGSGSSTDFTLTINPVETDDIATYYCQQSNKDPRTFGGGTKLEIK | – | – | no binding (tested: 50 nM) | – | – | 15.8 nM | binds | 53 nM
